The values that follow come from publication PMC9330529.

The target in series [1] is SARS-CoV-2 S2 protein (SARS-CoV-2 (WT), UniProt P0DTC2 686-1213). Nature of the series: streptavidin bead fluorescence binding. As to conditions: protein: commercial, tags: His.
The target is the same in series [2]. The experiment in a line: streptavidin bead fluorescence binding. As to conditions: protein: commercial; tags: His.
The target in series [3] is SARS-CoV-2 spike protein WT (SARS-CoV-2 (WT), UniProt P0DTC2 14-1213). Nature of the series: streptavidin bead fluorescence binding. As to conditions: protein: commercial, tags: His, chain copies: 3.
Another series deals with SARS-CoV-2 S1 protein (SARS-CoV-2, UniProt P0DTC2 14-685).
The next series addresses SARS-CoV-1 spike protein (SARS-CoV-1, UniProt P59594 14-1195).
A further series deals with PD-L1 (UniProt Q9NZQ7 19-238). The experiment in a line: AuNP colorimetric assay; 1.5 M NaCl, 250 nM each; SELEX buffer: PBS, 1 mM MgCl2, 0.01% Tween, pH 7.4, room temperature. As to conditions: protein: commercial; hairpin.
Sequence of PD-L1 (Q9NZQ7 19-238): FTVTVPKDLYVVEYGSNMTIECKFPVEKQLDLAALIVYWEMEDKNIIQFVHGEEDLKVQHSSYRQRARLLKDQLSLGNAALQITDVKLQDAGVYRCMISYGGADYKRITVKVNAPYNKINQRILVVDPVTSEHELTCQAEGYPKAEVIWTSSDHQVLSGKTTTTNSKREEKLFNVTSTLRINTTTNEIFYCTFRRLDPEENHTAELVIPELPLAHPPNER

Take CAAGGAGCGACCAGAGGCGGGTTCCTAGACTTGTACTCAGCCT (ssDNA) [S2A2C3]: in the series with SARS-CoV-2 S2 protein [1] (label: 6-FAM), the binding result is recorded as “binds”.

B1: S2A2 (ssDNA)
DNA: CAAGGAGCGACCAGAGGCGGGTTCCTAGACTTGTACTCAGCCTTTACAGCTATGCCCTGGCATCCTTCAGCCC
With B1, the Kd (as a rule, the constant that tells how readily two partners part at equilibrium) in the series with SARS-CoV-2 S2 protein [1] (label: 6-FAM) amounted to 44.2 ± 6.6 nM.

B2: S2A1C1 (ssDNA)
DNA: CAAGGAGCGACCAGAGGGGCGGTTTATCAACAACTCGCTCTGTACACCACTCTTTG
For the molecule B2, the binding result with SARS-CoV-2 S2 protein [2] is “binds”.

B3: S2A1 (ssDNA)
DNA: CAAGGAGCGACCAGAGGGGCGGTTTATCAACAACTCGCTCTGTACACCACTCTTTGTTGGCATCCTTCAGCCC
In turn, B3 showed a Kd with SARS-CoV-2 S2 protein [2] of 49.7 ± 3.2 nM.
For CGCAGCACCCAAGAACAAGGACTGCTTAGGATTGCGATAGGTTCGG (ssDNA) [S1B6C3], the Kd in series [3] is 56.4 ± 14.2 nM.
On to AGGCGGGTTCCTAGACTTGTACTCAGCCT (ssDNA) [S2A2C1], for which the Kd worked out at 83.4 ± 8 nM in series [3] (hairpin) and 35 ± 4.3 nM with SARS-CoV-2 S2 protein [1] (hairpin). The binding result in the series with SARS-CoV-2 S1 protein is listed as “no binding”; with SARS-CoV-1 spike protein, “binds”; with PD-L1 it was “no binding”.
